Source: patent US20250129141A1 (BEIJING WISDOMAB BIOTECHNOLOGY, published 2025)

Target: recombinant protein of C-terminal domain of tetanus toxin heavy chain with C-terminal His tag (TT-Hc-His) (Clostridium tetani, UniProt P04958 865-1315)

| Binder | Kd | koff |
| --- | --- | --- |
| S22E2-h1-IgG1 (antibody, V domains shown) VH: QVTLKESGPVLVKPTETLTLTCTVSGFSLTDYGVNWIRQPPGKALEWLGMIWSDGTTDYSSALKSRLTISKDTSKSQVVLTMTNMDPVDTATYYCARVDGYSHYYAMDYWGQGTLVTVSS VL: DIQMTQSPSSLSASVGDRVTITCRASENIYSYLAWYQQKQGKAPQLLIYNAKTLAEGVSSRFSGSGSGTQFTLTISSLQPEDFATYYCQHHYGLPFTFGQGTKLEIK | 0.573 nM |  |
| S24B8-h1-IgG1 (antibody, V domains shown) VH: QVQLVQSGAEVKKPGSSVKVSCKASGYTFTSYWIYWVRQAPGQGLEWIGEINPTNGFANYNEKFKTKATITVDKSTSTAYMELSSLRSEDTAVYYCAIHFRFPYWGQGTMVTVSS VL: DIQMTQSPSSLSASVGDRVTITCRASQDIGSSLTWLQQKPGKAPKRLIYATSSLDSGVPSRFSGSGSGTDYTLTISSLQPEDFATYYCLQYASSPYTFGQGTKLEIK |  | < 1e-05 s⁻¹ |
| S24B8-h3-IgG1 (antibody, V domains shown) VH: QVQLVQSGAEVKKPGSSVKVSCKASGYTFTSYWIYWVRQAPGQGLEWIGEINPTNAFANYNEKFKTKATITVDKSTSTAYMELSSLRSEDTAVYYCAIHFRFPYWGQGTMVTVSS VL: DIQMTQSPSSLSASVGDRVTITCRASQDIGSSLTWLQQKPGKAPKRLIYATSSLDSGVPSRFSGSGSGTDYTLTISSLQPEDFATYYCLQYASSPYTFGQGTKLEIK | 0.164 nM |  |
| S24B8-h2-IgG1 (antibody, V domains shown) VH: QVQLVQSGAEVKKPGSSVKVSCKASGYTFTSYWIYWVRQAPGQGLEWIGEINPTAGFANYNEKFKTKATITVDKSTSTAYMELSSLRSEDTAVYYCAIHFRFPYWGQGTMVTVSS VL: DIQMTQSPSSLSASVGDRVTITCRASQDIGSSLTWLQQKPGKAPKRLIYATSSLDSGVPSRFSGSGSGTDYTLTISSLQPEDFATYYCLQYASSPYTFGQGTKLEIK | 0.385 nM |  |
